Target: the molecule itself
Test: SAXS; steady state, flow cell; 1.14 mg/mL disassembled Cp185 in disassembly buffer (1.5 M GuHCl, 0.5 M LiCl, 50 mM HEPES pH 7.5, 2 mM DTT); monomer to dimer

B1: full-length hepatitis B virus core protein Cp185 (natural protein)
chain: MDIDPYKEFGATVELLSFLPSDFFPSVRDLLDTASALYREALESPEHCSPHHTALRQAILCWGELMTLATWVGNNLEDPASRDLVVNYVNTNMGLKIRQLLWFHISCLTFGRETVLEYLVSFGVWIRTPPAYRPPNAPILSTLPETTVVRRRDRGRSPRRRTPSPRRRRSQSPRRRRSQSRESQC
  stoichiometry N: 2

From paper PMC7458484 (ACS Nano, 2020)
